# Experimental data from the RNAGym collection of RNA variant scans (doi:10.7554/elife.80360).
# B1: CPEB3 Ribozyme (parent)
# chain: GGGGGCCACAGCAGAAGCGUUCACGUCGCGGCCCCUGUCAGAUUCUGGUGAAUCUGCGAAUUCUGCUGU
# Variants of: B1
# Test: self-cleavage, relative activity (ratio to wild type); higher = more cleavage; co-transcriptional
row,Variant,self-cleavage
1,A13U U44A,0.659
2,A13U U49A,0.91
3,A13U U49G,0.901
4,A13U U53C,0.357
5,A13U U55C,0.403
6,A13U U62C,0.278
7,A13U U62G,0.299
8,A13U U67G,0.827
9,G14A,0.832
10,G14A A15G,0.823
11,G14A A15U,0.424
12,G14A A23U,0.875
13,G14A A40U,0.21
14,G14A A42G,0.372
15,G14A A42U,0.329
16,G14A A51G,0.81
17,G14A A52G,0.805
18,G14A A59C,0.343
19,G14A C22A,0.178
20,G14A C22U,0.17
21,G14A C24G,0.148
22,G14A C27G,0.116
23,G14A C29A,0.23
24,G14A C29G,0.167

row,Variant,self-cleavage
1,G14A C32U,0.802
2,G14A C33G,0.414
3,G14A C33U,0.747
4,G14A C34U,0.751
5,G14A C35A,0.202
6,G14A C35G,0.236
7,G14A C54G,0.312
8,G14A C54U,0.755
9,G14A C57U,0.229
10,G14A C63G,0.73
11,G14A C63U,0.98
12,G14A G17A,0.134
13,G14A G17C,0.175
14,G14A G19U,0.091
15,G14A G28A,0.147
16,G14A G28U,0.112
17,G14A G30C,0.281
18,G14A G30U,0.21
19,G14A G31U,0.207
20,G14A G37C,0.114
21,G14A G37U,0.138
22,G14A G41C,0.179
23,G14A G41U,0.264
24,G14A G47A,0.826

row,Variant,self-cleavage
1,G14A G65A,0.258
2,G14A G68A,0.866
3,G14A G68U,0.765
4,G14A U20C,0.181
5,G14A U21A,0.646
6,G14A U21C,0.413
7,G14A U21G,0.121
8,G14A U26C,0.432
9,G14A U26G,0.401
10,G14A U36G,0.134
11,G14A U38C,0.501
12,G14A U38G,0.152
13,G14A U46A,0.85
14,G14A U49A,0.742
15,G14A U49G,0.842
16,G14A U53A,0.362
17,G14A U53G,0.344
18,G14A U55A,0.289
19,G14A U61C,0.246
20,G14A U61G,0.414
21,G14A U64A,0.444
22,G14A U69A,0.875
23,G14A U69C,1
24,G14A U69G,0.934

row,Variant,self-cleavage
1,G14C,0.689
2,G14C A15G,0.725
3,G14C A15U,0.179
4,G14C A23G,0.365
5,G14C A40U,0.199
6,G14C A51U,0.489
7,G14C A52C,0.459
8,G14C A52U,0.562
9,G14C A59G,0.62
10,G14C A60C,0.21
11,G14C A60U,0.249
12,G14C C18A,0.149
13,G14C C18U,0.155
14,G14C C24A,0.136
15,G14C C24G,0.131
16,G14C C32U,0.716
17,G14C C34U,0.653
18,G14C C35A,0.173
19,G14C C54A,0.264
20,G14C C57G,0.203
21,G14C C63G,0.971
22,G14C C66G,0.447
23,G14C G17U,0.138
24,G14C G19C,0.126

row,Variant,self-cleavage
1,G14C G19U,0.156
2,G14C G30C,0.142
3,G14C G30U,0.157
4,G14C G47C,0.794
5,G14C G48U,0.805
6,G14C G56A,0.31
7,G14C G58C,0.497
8,G14C G58U,0.817
9,G14C G65U,0.242
10,G14C U20G,0.151
11,G14C U26A,0.346
12,G14C U38A,0.308
13,G14C U38C,0.284
14,G14C U43A,0.204
15,G14C U43C,0.399
16,G14C U44C,0.189
17,G14C U49C,0.55
18,G14C U53A,0.326
19,G14C U53C,0.19
20,G14C U55G,0.185
21,G14C U61C,0.241
22,G14C U69A,0.769
23,G14U,0.855
24,G14U A15C,0.415

row,Variant,self-cleavage
1,G14U A15U,0.358
2,G14U A16G,0.504
3,G14U A40C,0.17
4,G14U A42G,0.404
5,G14U A51U,0.739
6,G14U A52G,0.851
7,G14U A59C,0.309
8,G14U A59G,0.753
9,G14U A60C,0.269
10,G14U A60U,0.331
11,G14U C22G,0.172
12,G14U C24A,0.249
13,G14U C27A,0.172
14,G14U C27G,0.154
15,G14U C32G,0.237
16,G14U C33G,0.341
17,G14U C35A,0.257
18,G14U C39A,0.223
19,G14U C66U,0.436
20,G14U G17C,0.128
21,G14U G19C,0.15
22,G14U G19U,0.17
23,G14U G28A,0.213
24,G14U G28C,0.159

row,Variant,self-cleavage
1,G14U G37A,0.197
2,G14U G41A,0.206
3,G14U G41U,0.276
4,G14U G48C,0.907
5,G14U G48U,0.855
6,G14U G56A,0.539
7,G14U G58U,0.893
8,G14U G68A,0.908
9,G14U G68C,0.779
10,G14U U20C,0.219
11,G14U U21G,0.147
12,G14U U26C,0.478
13,G14U U36C,0.535
14,G14U U36G,0.142
15,G14U U43A,0.321
16,G14U U44A,0.553
17,G14U U44G,0.566
18,G14U U46G,0.871
19,G14U U49A,0.858
20,G14U U55A,0.325
21,G14U U61A,0.461
22,G14U U62A,0.482
23,G14U U67A,0.733
